Patent publication US20220143148A1, “COMPOSITIONS AND METHODS FOR MODULATING CGRP SIGNALING TO REGULATE INTESTINAL INNATE LYMPHOID CELLS” (The Broad Institute, Inc., priority 2019, published 2022)

Tested on: small intestinal immune cells
Test: Droplet-based scRNA-seq of small intestinal immune cells (LP and PP), OVA vs PBS, clustering and differential expression
Assay type: in vivo, mouse
Details: PP
Excerpt: To comprehensively characterize small intestinal immune cells, Applicants generated scRNA-Seq profiles for 58,067 immune cells collected from lamina propria (LP) and Peyer's patch (PP) regions at steady state and after induction of a type 2 inflammatory reaction to ovalbumin (OVA) (Brandt et al., 2003) (FIGS. 1A and 8A). To ensure sufficient representation of rare cells, Applicants combined a normalization strategy—removing by flow sorting either a portion of IgD+ naïve B cells, which are the most abundant cell type in PPs, or all CD19+ and CD3+ T cells (FIG. 8B, Methods)—with profiling of a sufficiently large number of cells number (P>0.99 to recover at least 15 cells from each cluster, Methods) by massively parallel scRNA-seq (Haber et al., 2017) (Methods). Applicants obtained 36,797 and 21,270 high quality cells passing initial filtering (Methods) from PP and LP regions, respectively.
Overall, Applicants annotated 27 cell subsets across the two compartments, spanning T cells, B cells, ILCs, dendritic cells (DCs), myeloid cells and stromal cells, in frequencies ranging from 0.07% to 14%. Briefly, Applicants first partitioned the cells from the PP regions by unsupervised clustering (Methods) into 46 clusters, retained the 97% of cells that were robustly assigned cell identities in each cluster (Methods), assigned the cells from the LP regions to the 46 clusters using a classifier (Methods), and visualized the data with scvis (Ding et al., 2018), a deep generative model-based method (FIGS. 1B and 8C, Methods). Next, Applicants identified genes that were differentially expressed between the cells in each cluster and the remaining cells (Table 1, Methods), as well as between pairs of clusters (Table 2), to elucidate identities of similar cell types/states. Applicants excluded from downstream analysis clusters mostly consisting of contaminants from epithelium, likely doublets, or cells with a small number of Unique Molecular Identifiers (UMIs) (FIGS. 1C and 8D), or lacking distinct markers (Methods). Altogether, Applicants retained 27 clusters spanning 85% of the cells and each associated with distinct marker genes (FIG. 8E, Methods).
To induce allergic reaction to OVA, 6 to 7 weeks old mice were sensitized twice, two weeks apart, with 50 μg of OVA plus 1 mg of aluminum potassium sulfate adjuvant via intraperitoneal injection. Two weeks later, mice were orally administered with 50 mg of OVA on every other day for a total of five times. 1 μg of α-CGRP peptide was administered simultaneously when indicated. Mice were deprived of food for 3-4 hours in cages with wood chip bedding for limiting antigen degradation in the stomach before each intragastric challenge.
Isolation of cells from Peyer's patches (PPs). Peyer's patches (PPs) were carefully dissected from the small intestine under a stereo microscope using a fine scissor, pierced once with a fine forcep. Tissues were digested in freshly made digestion buffer (RPMI-1640 containing 100 μg/ml Liberase™ and 50 μg/ml DNase I at 37° C. on a roto-mixer. After 15 min, tissues were very gently mixed using a 1 ml pipette. The supernatant was collected and added to ice-cold MACS buffer (pH 7.4; PBS plus 2% FCS and 2 mM EDTA). Pre-warmed (37° C.) fresh digestion buffer was added to the remaining tissues. After rotation at 37° C. for 15 min, the mixture was vigorously mixed using a 1 ml pipette for 1 min. Supernatants from the two steps were combined and passed through 70 μm filters and stained for FACS (below).
Isolation of cells from the lamina propria (LP). The small intestines were opened longitudinally and washed in ice-cold PBS. For scRNA-seq, roughly 0.5 cm of fragments from each of the distal, middle and proximal regions without visible PPs were collected. Epithelial cells were dissociated by tissue rotation in pre-warmed (37° C.) PBS containing 10 mM EDTA at 37° C. for 15 min, followed by additional incubation on ice for 15 min. Tissues were then shaken vigorously. […]

B1: OVA (protein, UniProt P01012 2-386, looked up)
Ovalbumin: GSIGAASMEFCFDVFKELKVHHANENIFYCPIAIMSALAMVYLGAKDSTRTQINKVVRFDKLPGFGDSIEAQCGTSVNVHSSLRDILNQITKPNDVYSFSLASRLYAEERYPILPEYLQCVKELYRGGLEPINFQTAADQARELINSWVESQTNGIIRNVLQPSSVDSQTAMVLVNAIVFKGLWEKAFKDEDTQAMPFRVTEQESKPVQMMYQIGLFRVASMASEKMKILELPFASGTMSMLVLLPDEVSGLEQLESIINFEKLTEWTSSNVMEERKIKVYLPRMKMEEKYNLTSVLMAMGITDVFSSSANLSGISSAESLKISQAVHAAHAEINEAGREVVGSAEAGVDAASVSEEFRADHPFLFCIKHIATNAVLFFGRCVSP
Cluster ID 6
  5730508B09Rik percentage of expressing cells in OVA-treated group: 0.268
  Ablim1 percentage of expressing cells in OVA-treated group: 0.403
  Arid3a percentage of expressing cells in OVA-treated group: 0.212
  Arl4a percentage of expressing cells in OVA-treated group: 0.228
  Asph percentage of expressing cells in OVA-treated group: 0.377
  Cdkn2d percentage of expressing cells in OVA-treated group: 0.747
  Cfp percentage of expressing cells in OVA-treated group: 0.422
  Ctsz percentage of expressing cells in OVA-treated group: 0.97
  Fcer1g percentage of expressing cells in OVA-treated group: 0.94
  Gadd45b percentage of expressing cells in OVA-treated group: 0.342
  Gatad1 percentage of expressing cells in OVA-treated group: 0.34
  Gnai2 percentage of expressing cells in OVA-treated group: 0.932
  Grb2 percentage of expressing cells in OVA-treated group: 0.614
  H2-DMa percentage of expressing cells in OVA-treated group: 0.878
  Hnrnpa3 percentage of expressing cells in OVA-treated group: 0.851
  Irf4 percentage of expressing cells in OVA-treated group: 0.256
  Itgb7 percentage of expressing cells in OVA-treated group: 0.669
  Klf3 percentage of expressing cells in OVA-treated group: 0.125
  Klk1b27 percentage of expressing cells in OVA-treated group: 0.974
  Lifr percentage of expressing cells in OVA-treated group: 0.595
  Map3k1 percentage of expressing cells in OVA-treated group: 0.346
  Mark3 percentage of expressing cells in OVA-treated group: 0.139
  Net1 percentage of expressing cells in OVA-treated group: 0.53
  Orai1 percentage of expressing cells in OVA-treated group: 0.274
  Paqr5 percentage of expressing cells in OVA-treated group: 0.52
  Pde4b percentage of expressing cells in OVA-treated group: 0.177
  Pdia3 percentage of expressing cells in OVA-treated group: 0.844
  Pink1 percentage of expressing cells in OVA-treated group: 0.282
  Pten percentage of expressing cells in OVA-treated group: 0.429
  Ptprcap percentage of expressing cells in OVA-treated group: 0.941
  Rab7b percentage of expressing cells in OVA-treated group: 0.223
  Rsrp1 percentage of expressing cells in OVA-treated group: 0.754
  Sema4b percentage of expressing cells in OVA-treated group: 0.531
  Sertad1 percentage of expressing cells in OVA-treated group: 0.12
  Snrnp70 percentage of expressing cells in OVA-treated group: 0.43
  Tmem50a percentage of expressing cells in OVA-treated group: 0.854
  Tmem59 percentage of expressing cells in OVA-treated group: 0.833
  Tmem86a percentage of expressing cells in OVA-treated group: 0.204
  Tsix percentage of expressing cells in OVA-treated group: 0.23
  Txndc5 percentage of expressing cells in OVA-treated group: 0.699
Cluster ID 6, OVA vs PBS
  5730508B09Rik LN (average fold change): −0.218
  Ablim1 LN (average fold change): −0.197
  Arid3a LN (average fold change): −0.329
  Arl4a LN (average fold change): −0.276
  Asph LN (average fold change): −0.195
  Cdkn2d LN (average fold change): 0.244
  Cfp LN (average fold change): 0.312
  Ctsz LN (average fold change): 0.156
  Fcer1g LN (average fold change): 0.160
  Gadd45b LN (average fold change): −0.220
  Gatad1 LN (average fold change): −0.199
  Gnai2 LN (average fold change): −0.175
  Grb2 LN (average fold change): −0.222
  H2-DMa LN (average fold change): 0.190
  Hnrnpa3 LN (average fold change): 0.164
  Irf4 LN (average fold change): −0.248
  Itgb7 LN (average fold change): 0.238
  Klf3 LN (average fold change): −0.428
  Klk1b27 LN (average fold change): 0.170
  Lifr LN (average fold change): 0.265
  Map3k1 LN (average fold change): −0.227
  Mark3 LN (average fold change): −0.383
  Net1 LN (average fold change): 0.285
  Orai1 LN (average fold change): −0.245
  Paqr5 LN (average fold change): 0.279
  Pde4b LN (average fold change): −0.282
  Pdia3 LN (average fold change): 0.157
  Pink1 LN (average fold change): −0.291
  Pten LN (average fold change): −0.226
  Ptprcap LN (average fold change): 0.159
  Rab7b LN (average fold change): −0.285
  Rsrp1 LN (average fold change): 0.195
  Sema4b LN (average fold change): 0.221
  Sertad1 LN (average fold change): −0.396
  Snrnp70 LN (average fold change): 0.220
  Tmem50a LN (average fold change): 0.153
  Tmem59 LN (average fold change): 0.179
  Tmem86a LN (average fold change): 0.323
  Tsix LN (average fold change): −0.418
  Txndc5 LN (average fold change): 0.226
Cluster ID 7
  Ddit4 percentage of expressing cells in OVA-treated group: 0.359
  Dusp2 percentage of expressing cells in OVA-treated group: 0.465
  Fkbp5 percentage of expressing cells in OVA-treated group: 0.167
  Gabarapl2 percentage of expressing cells in OVA-treated group: 0.643
  Hsp90ab1 percentage of expressing cells in OVA-treated group: 0.834
  Il7r percentage of expressing cells in OVA-treated group: 0.191
  Lmo4 percentage of expressing cells in OVA-treated group: 0.204
  Matk percentage of expressing cells in OVA-treated group: 0.284
  Ptpn22 percentage of expressing cells in OVA-treated group: 0.53
  Svbp percentage of expressing cells in OVA-treated group: 0.246
  Tsc22d3 percentage of expressing cells in OVA-treated group: 0.565
  Txnip percentage of expressing cells in OVA-treated group: 0.415
  Zfp36l2 percentage of expressing cells in OVA-treated group: 0.757
Cluster ID 7, OVA vs PBS
  Ddit4 LN (average fold change): 0.463
  Dusp2 LN (average fold change): 0.542
  Fkbp5 LN (average fold change): 0.540
  Gabarapl2 LN (average fold change): 0.253
  Hsp90ab1 LN (average fold change): −0.450
  Il7r LN (average fold change): 0.526
  Lmo4 LN (average fold change): 0.711
  Matk LN (average fold change): 0.513
  Ptpn22 LN (average fold change): 0.340
  Svbp LN (average fold change): 0.261
  Tsc22d3 LN (average fold change): 1.003
  Txnip LN (average fold change): 0.551
  Zfp36l2 LN (average fold change): 1.239
Cluster ID 8
  AW112010 percentage of expressing cells in OVA-treated group: 0.995
  AY036118 percentage of expressing cells in OVA-treated group: 0.431
  Actr3 percentage of expressing cells in OVA-treated group: 0.771
  Alyref percentage of expressing cells in OVA-treated group: 0.137
  Amd1 percentage of expressing cells in OVA-treated group: 0.265
  Arf4 percentage of expressing cells in OVA-treated group: 0.478
  Arfrp1 percentage of expressing cells in OVA-treated group: 0.21
  Arl6ip1 percentage of expressing cells in OVA-treated group: 0.61
  Arl6ip5 percentage of expressing cells in OVA-treated group: 0.618
  Arpc5l percentage of expressing cells in OVA-treated group: 0.381
  Arrb2 percentage of expressing cells in OVA-treated group: 0.32
  Ash1l percentage of expressing cells in OVA-treated group: 0.235
  B2m percentage of expressing cells in OVA-treated group: 0.999
  Bcl2a1b percentage of expressing cells in OVA-treated group: 0.151
  Bcl2l11 percentage of expressing cells in OVA-treated group: 0.383
  Bcl2 percentage of expressing cells in OVA-treated group: 0.839
  Bhlhe40 percentage of expressing cells in OVA-treated group: 0.571
  Cap1 percentage of expressing cells in OVA-treated group: 0.695
  Ccr2 percentage of expressing cells in OVA-treated group: 0.536
  Cd47 percentage of expressing cells in OVA-treated group: 0.833
  Cd69 percentage of expressing cells in OVA-treated group: 0.306
  Cd74 percentage of expressing cells in OVA-treated group: 0.448
  Cdk2ap1 percentage of expressing cells in OVA-treated group: 0.132
  Cdkn1a percentage of expressing cells in OVA-treated group: 0.084
  Cdv3 percentage of expressing cells in OVA-treated group: 0.255
  Cks2 percentage of expressing cells in OVA-treated group: 0.108
  Clec2d percentage of expressing cells in OVA-treated group: 0.289
  Coq10b percentage of expressing cells in OVA-treated group: 0.305
  Crem percentage of expressing cells in OVA-treated group: 0.371
  Csrp1 percentage of expressing cells in OVA-treated group: 0.129
  Ctla2a percentage of expressing cells in OVA-treated group: 0.74
  Cxcr4 percentage of expressing cells in OVA-treated group: 0.577
  Ddx21 percentage of expressing cells in OVA-treated group: 0.248
  Defa24 percentage of expressing cells in OVA-treated group: 0.044
  Dgat1 percentage of expressing cells in OVA-treated group: 0.175
  Dusp1 percentage of expressing cells in OVA-treated group: 0.614
  Eef2 percentage of expressing cells in OVA-treated group: 0.957
  Egr1 percentage of expressing cells in OVA-treated group: 0.156
  Eif4a2 percentage of expressing cells in OVA-treated group: 0.622
  Emb percentage of expressing cells in OVA-treated group: 0.506
  Fam105a percentage of expressing cells in OVA-treated group: 0.376
  Fasl percentage of expressing cells in OVA-treated group: 0.598
  Fcer1g percentage of expressing cells in OVA-treated group: 0.927
